The term kon denotes the second-order rate constant of association.

Numbering of substitutions follows the chain as printed.

One experiment deals with T1, Human TLR4/MD-2 complex (human, UniProt O00206 24-631; Q9Y6Y9 19-160).
T1 construct: Toll-like receptor 4 (TLR4), human, chain of the bought TLR4/MD-2 complex; Myeloid Differentiation factor 2 (MD-2), human, chain of the bought TLR4/MD-2 complex; No catalogue number printed; also called TLR4/MD-2 receptor; source: bought: R&D Systems
Put plainly: SPR; Biacore T200; TLR4/MD-2 amine-coupled on CM5 (~1200 RU); HMGB1 isoforms injected at 30 μL/min for 60 s, 25 °C, dissociation 1 min; HBS-EP pH 7.4 (10 mM hepes, 150 mM NaCl, 3 mM EDTA, 0.05% P20); 1:1 binding supposed; apparent KD. The note with it: both partners purified.

For the next experiment, the target named is T2, human TLR4 (human, UniProt O00206 24-631).
T2 construct: Toll-like receptor 4 (TLR4), recombinant human (rhTLR4); No catalogue number printed; also called rhTLR4; Toll-like receptor 4; source: bought: R&D Systems
In words: SPR; Biacore T200; rhTLR4 amine-coupled on CM5 (~800 RU); HMGB1 isoforms injected at 30 μL/min for 60 s, 25 °C, dissociation 1-2 min; HBS-EP pH 7.4; 1:1 binding supposed; apparent KD. Conditions: both partners purified. Background: In SPR one partner is held on a chip, and binding of the other changes the refractive index at the surface.

T1 sequence (O00206 24-631, chain 1 of 2): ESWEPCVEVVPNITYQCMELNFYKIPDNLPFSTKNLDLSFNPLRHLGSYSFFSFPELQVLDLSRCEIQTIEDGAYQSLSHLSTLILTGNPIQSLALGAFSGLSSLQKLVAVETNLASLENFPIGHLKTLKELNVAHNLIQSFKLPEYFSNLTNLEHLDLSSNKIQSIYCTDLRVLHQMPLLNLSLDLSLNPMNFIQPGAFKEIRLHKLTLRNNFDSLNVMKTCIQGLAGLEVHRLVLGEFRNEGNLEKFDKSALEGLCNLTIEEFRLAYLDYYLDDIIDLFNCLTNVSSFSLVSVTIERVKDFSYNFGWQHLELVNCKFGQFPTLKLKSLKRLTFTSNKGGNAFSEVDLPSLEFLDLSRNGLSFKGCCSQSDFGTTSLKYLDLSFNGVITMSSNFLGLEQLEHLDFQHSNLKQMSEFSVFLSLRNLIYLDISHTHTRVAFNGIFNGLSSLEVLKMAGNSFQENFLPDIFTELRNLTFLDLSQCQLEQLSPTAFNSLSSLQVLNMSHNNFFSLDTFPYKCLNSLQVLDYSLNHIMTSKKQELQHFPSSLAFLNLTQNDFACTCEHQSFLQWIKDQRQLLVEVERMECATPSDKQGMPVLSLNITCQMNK
T1 sequence (Q9Y6Y9 19-160, chain 2 of 2): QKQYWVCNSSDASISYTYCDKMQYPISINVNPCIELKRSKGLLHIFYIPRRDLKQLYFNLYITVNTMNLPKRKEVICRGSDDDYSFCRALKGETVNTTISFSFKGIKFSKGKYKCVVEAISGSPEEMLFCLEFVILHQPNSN
T2 sequence (O00206 24-631): as the sequence (O00206 24-631, chain 1 of 2) above

B1: disulfide HMGB1 (High Mobility Group Box 1) (natural protein, UniProt P63159 1-215, looked up)
chain: MGKGDPKKPRGKMSSYAFFVQTCREEHKKKHPDASVNFSEFSKKCSERWKTMSAKEKGKFEDMAKADKARYEREMKTYIPPKGETKKKFKDPNAPKRPPSAFFLFCSEYRPKIKGEHPGLSIGDVAKKLGEMWNNTAADDKQPYEKKAAKLKEKYEKDIAAYRAKGKPDAAKKGVVKAEKSKKKKEEEDDEEDEEDEEEEEEEEDEDEEEDDDDE
modifications: disulfide bond between C23 and C45
notes: High Mobility Group Box 1 (HMGB1), single 215-amino acid polypeptide; neither is stated here; also called disulfide HMGB1 isoform; intact HMGB1; source: E. coli, purified to homogeneity
Take B1: in the experiment with Human TLR4/MD-2 complex, the Kd turned out to be 0.42 ± 0.01 µM, the “fold faster association rate than the other isoforms” value worked out at 10 fold and the kon was 286000 M⁻¹ s⁻¹.

B2: DTT reduced HMGB1 (natural protein, UniProt P63159 1-215, looked up)
chain: B1 chain
modifications: cysteines reduced with DTT (no C23-C45 disulfide)
notes: High Mobility Group Box 1 (HMGB1), 215 amino acids, reduced form; Prepared as in Yang et al. 2012 (cited); Same protein as m1 in another redox state; source: E. coli, purified to homogeneity, then reduced with DTT
As to B2, the Kd with Human TLR4/MD-2 complex amounted to 3.93 ± 0.01 µM.

B3: non-oxidizable HMGB1 3S mutant (natural protein, UniProt P63159 1-215, looked up)
chain: B1 chain with C23S, C45S, C106S
notes: HMGB1 in which all three cysteines (C23, C45, C106) are replaced by serines; Commercial protein; also called 3S mutant HMGB1; source: provided by HMGBiotech (Milan, Italy)
Regarding B3, the Kd in the experiment with Human TLR4/MD-2 complex was 3.02 ± 0.02 µM; in the experiment with human TLR4, 4.2 ± 0.09 µM.

The values above are taken from publication PMC6085627, “Exploring the biological functional mechanism of the HMGB1/TLR4/MD-2 complex by surface plasmon resonance” (Molecular Medicine, 2018).
